Reference: paper PMC5827731

Assays:
[1] = biological target: NPM1^mutB2 (Lys and Arg to Ala in the B2-tract) (UniProt P06748)
[2] = biological target: SURF6-N (N-terminal segment of Surfeit locus protein 6, residues 1-182) (UniProt O75683)
UniProt O75683, sequence (O75683 1-182): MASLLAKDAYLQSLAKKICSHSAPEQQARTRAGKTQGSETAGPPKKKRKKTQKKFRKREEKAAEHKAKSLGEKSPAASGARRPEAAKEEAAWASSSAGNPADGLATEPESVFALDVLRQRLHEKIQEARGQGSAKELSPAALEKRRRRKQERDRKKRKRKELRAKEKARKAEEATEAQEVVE

Substance | threshold SURF6-N concentration for heterotypic LLPS, NPM1 construct at 20 µM (turbidity) [1] [µM] | threshold concentration for heterotypic LLPS with SURF6-N (turbidity, Fig. 2c) [2] [µM]
NPM1^mutB2 (Lys and Arg to Ala in the B2-tract) (from UniProt P06748 1-294) (natural protein) | 60 | –
NPM1^N188 (NPM1 truncation that lacks the CTD plus the B2-tract) (domain or fragment) | – | 30
